Laboratory results: patent US20200181261A1 (Bayer, published 2020)
Changes are numbered by the printed parent chain.

B1: TPP-3707 (antibody, human IgG2, kappa, V domains shown)
VH: EVQLVESGGGLVQPGGSLRLSCAASGFTFSLYQMHWVRQAPGKGLEWVSWISFSGGNTGYADSVKGRFTISRDNSKNTLYLQMNSLRAEDTAVYYCARATGYSSPWYLDPWGQGTLVTVSS
VL: DIQMTQSPSSLSASVGDRVTITCQASHEIDNYLNWYQQKPGKAPKLLIYDAYWSKTGVPSRFSGSGSGTDFTLTISSLQPEDIATYYCQGYDDLSVTFGGGTKVDIKR
notes: also called 090E-M007-A09-Mat2-hIgG2-hIgG2Kappa
B2: TPP-2971 (antibody, mouse IgG1, V domains shown)
VH: QVTLKESGPGILQPSQTLSLTCSFSGFSLSTYGIGVGWIRQPSGKDLEWLAHIWWNDNKYYNTALKSRLTISKDTSNNQVFLKIASVDTADTATYYCARISLPYFDYWGQGTTLTVSS
VL: DIVMTQSQKFMSTSVGDRVSITCKASQNVGTAVAWYQQKPGQSPKLLIYSASNRYTGVPDRFTGSGSGTDFTLTISNMQSEDLADYFCQQYSSYPLTFGAGTKLELK
notes: murine hybridoma antibody, mouse IgG1; also called 792.15H12C9
B3: TPP-3821 (antibody, human IgG2, kappa, V domains shown)
VH: QVTLRESGPALVKPTQTLTLTCTFSGFSLSTYGIGVGWIRQPPGKALEWLAHIWWNDNKYYSTSLKTRLTISKDTSKNQVVLTMTNMDPVDTATYYCARISLPYFDYWGQGTLVTVSS
VL: DIQLTQSPSFLSASVGDRVTITCKASQNVGTAVAWYQQKPGKAPKLLIYSASNRYTGVPSRFSGSGSGTEFTLTISSLQPEDFATYYCQQYNNYPLTFGGGTKVEIKR
notes: humanized from TPP-3187, human IgG2; also called 3187HU2-hIgG2Kappa
B4: TPP-3820 (antibody, human IgG2, kappa, V domains shown)
VH: B3 VH with S30T, A46G
VL: B3 VL
notes: humanized from TPP-3187, human IgG2; also called 3187HU1-hIgG2Kappa
B5: TPP-3310 (antibody, human IgG2, kappa)
heavy: QVTLRESGPALVKPTQTLTLTCTFSGFSLSTYGIGVGWIRQPPGKALEWLAHIWWNDNKYYSTSLKTRLTISKDTSKNQVVLTMTNMDPVDTATYYCARISLPYFDYWGQGTTLTVSSASTKGPSVFPLAPCSRSTSESTAALGCLVKDYFPEPVTVSWNSGALTSGVHTFPAVLQSSGLYSLSSVVTVPSSNFGTQTYTCNVDHKPSNTKVDKTVERKCCVECPPCPAPPVAGPSVFLFPPKPKDTLMISRTPEVTCVVVDVSHEDPEVQFNWYVDGVEVHNAKTKPREEQFNSTFRVVSVLTVVHQDWLNGKEYKCKVSNKGLPAPIEKTISKTKGQPREPQVYTLPPSREEMTKNQVSLTCLVKGFYPSDIAVEWESNGQPENNYKTTPPMLDSDGSFFLYSKLTVDKSRWQQGNVFSCSVMHEALHNHYTQKSLSLSPG
light: DIQLTQSPSFLSASVGDRVTITCKASQNVGTAVAWYQQKPGKAPKLLIYSASNRYTGVPSRFSGSGSGTEFTLTISSLQPEDFATYYCQQYSSYPLTFGGGTKVEIKRTVAAPSVFIFPPSDEQLKSGTASVVCLLNNFYPREAKVQWKVDNALQSGNSQESVTEQDSKDSTYSLSSTLTLSKADYEKHKVYACEVTHQGLSSPVTKSFNRGEC
notes: humanized from TPP-2971, human IgG2; also called TPP-2971HU1-hIgG2Kappa

target: T1, human CEACAM6, full-length, on cells (human, UniProt P40199 35-320); experiment: FACS, transfected HeLa cells
T1 construct: used both for transfected HeLa cells and for tumor cell lines that express CEACAM6 endogenously; also called TPP-4639; HeLa human CEACAM6
T1 sequence: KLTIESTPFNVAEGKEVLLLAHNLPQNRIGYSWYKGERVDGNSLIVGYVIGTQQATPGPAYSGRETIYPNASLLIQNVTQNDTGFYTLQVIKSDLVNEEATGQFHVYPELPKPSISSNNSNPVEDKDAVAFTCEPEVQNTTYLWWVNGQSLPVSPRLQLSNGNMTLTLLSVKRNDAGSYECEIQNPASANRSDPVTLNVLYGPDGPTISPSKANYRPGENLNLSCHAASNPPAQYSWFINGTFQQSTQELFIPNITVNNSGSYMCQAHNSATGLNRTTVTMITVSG
Experimental: (§1) For FACS experiments HeLa wild type cells were cultured in RPMI-1640, 10% FCS, while CEACAM-receptor transfected HeLa cells received in addition 0.5% Gentamycin (stock 10 mg/ml, Fa. PAA) and 200 μg/ml Hygromycin B (stock 50 mg/ml, Invitrogen). Cells were washed 3 times with PBS w/o Ca²⁺/Mg²⁺ and were detached from the culture plate non-enzymatically with EDTA dissociation buffer (Gibco). Cells were washed in cold FACS buffer (PBS w/o Ca²⁺/Mg²⁺ and heat-inactivated 3% FCS) and were counted using a countess machine (Invitrogen). 10⁵ cells per well were plated and incubated with the respective primary antibody (5 μg/ml) for 1 h at 4° C. on a plate shaker. […] After 2 times washing the cells were resuspended in 100 μl FACS buffer and were analysed on a FACS Canto II machine (Beckton Dickinson) or a FACS Array (Beckton Dickinson).
(§2) For EC₅₀ analysis, the primary antibodies were used at increasing concentrations in a range from 0.1 nM to 100 nM. Half maximal binding values (EC₅₀) were determined by plotting the median fluorescence intensity signal against the concentration (logarithmic scale). Curve fitting of data was performed using the Graph Pad prism analysis software.

**Q.** Which results are given for B1?
**A.** EC50: 19 nM; FACS median fluorescence: 1000 to 10000 medianfluorescence

**Q.** How did the EC50 turn out when B2 was run?
**A.** The EC50 was 0.5 nM.

**Q.** What about the FACS median fluorescence of the same binder?
**A.** Its FACS median fluorescence is 10 to 100 medianfluorescence.

**Q.** B3 was tested. Which EC50 did it give?
**A.** The EC50 was 1 nM.

**Q.** Which EC50 does the source give for B4 here?
**A.** Its EC50 is 1 nM.

**Q.** For B5, which EC50 is on record?
**A.** Its EC50 is 0.6 nM.

Target: T2, Macaca fascicularis (cynomolgus) CEACAM6, full-length, on transfected HeLa cells (Macaca fascicularis, GPI anchor at the C-terminus on the cell surface, not carried by the letters)
T2 construct: also called TPP-4189; HeLa Cynomolgus CEACAM6
T2 chain: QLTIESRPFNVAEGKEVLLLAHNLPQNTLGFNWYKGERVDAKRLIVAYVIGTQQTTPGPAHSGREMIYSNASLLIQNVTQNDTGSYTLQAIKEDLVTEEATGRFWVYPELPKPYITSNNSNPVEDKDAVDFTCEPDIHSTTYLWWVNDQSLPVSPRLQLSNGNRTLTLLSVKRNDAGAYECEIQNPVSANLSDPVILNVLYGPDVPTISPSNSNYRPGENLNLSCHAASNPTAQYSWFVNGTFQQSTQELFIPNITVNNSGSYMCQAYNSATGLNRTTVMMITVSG
Experiment: FACS, transfected HeLa cells
Experimental: as §1, §2

**Q.** For B1, which EC50 is on record?
**A.** The EC50 was 4 nM.

**Q.** Which results are given for B2?
**A.** EC50: 0.5 nM; FACS median fluorescence: 100 to 1000 medianfluorescence

**Q.** B3 was tested. Which EC50 did it give?
**A.** The EC50 was 1 nM.

**Q.** With B4 as the binder, how does the EC50 read?
**A.** The EC50 was 1 nM.

**Q.** For B5, which EC50 is on record?
**A.** The EC50 was 1.5 nM.

target: T3, human CEACAM3, full-length, on transfected HeLa cells (human, UniProt P40198 35-252); experiment: FACS, transfected HeLa cells
T3 construct: also called TPP-4187; HeLa human CEACAM3
T3 sequence: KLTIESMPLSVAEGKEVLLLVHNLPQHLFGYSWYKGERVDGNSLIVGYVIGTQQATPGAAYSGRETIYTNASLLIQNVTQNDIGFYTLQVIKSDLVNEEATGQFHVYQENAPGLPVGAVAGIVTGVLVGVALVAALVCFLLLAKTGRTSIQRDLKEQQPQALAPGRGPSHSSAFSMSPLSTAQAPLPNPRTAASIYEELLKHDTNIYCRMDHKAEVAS
Experimental: as §1, §2

**Q.** Does B2 bind?
**A.** Result: no binding (tested: 5 µg/ml)

**Q.** Does B3 bind?
**A.** Result: no binding (tested: 5 µg/ml)

**Q.** Does B4 bind?
**A.** Result: no binding (tested: 5 µg/ml)

**Q.** Does B5 bind?
**A.** Result: no binding (tested: 5 µg/ml)

target: T4, human CEACAM5, full-length, on transfected HeLa cells (human, UniProt P06731 35-685, GPI anchor at the C-terminus on the cell surface, not carried by the letters); experiment: FACS, transfected HeLa cells
T4 construct: also called TPP-4188; HeLa human CEACAM5
T4 sequence: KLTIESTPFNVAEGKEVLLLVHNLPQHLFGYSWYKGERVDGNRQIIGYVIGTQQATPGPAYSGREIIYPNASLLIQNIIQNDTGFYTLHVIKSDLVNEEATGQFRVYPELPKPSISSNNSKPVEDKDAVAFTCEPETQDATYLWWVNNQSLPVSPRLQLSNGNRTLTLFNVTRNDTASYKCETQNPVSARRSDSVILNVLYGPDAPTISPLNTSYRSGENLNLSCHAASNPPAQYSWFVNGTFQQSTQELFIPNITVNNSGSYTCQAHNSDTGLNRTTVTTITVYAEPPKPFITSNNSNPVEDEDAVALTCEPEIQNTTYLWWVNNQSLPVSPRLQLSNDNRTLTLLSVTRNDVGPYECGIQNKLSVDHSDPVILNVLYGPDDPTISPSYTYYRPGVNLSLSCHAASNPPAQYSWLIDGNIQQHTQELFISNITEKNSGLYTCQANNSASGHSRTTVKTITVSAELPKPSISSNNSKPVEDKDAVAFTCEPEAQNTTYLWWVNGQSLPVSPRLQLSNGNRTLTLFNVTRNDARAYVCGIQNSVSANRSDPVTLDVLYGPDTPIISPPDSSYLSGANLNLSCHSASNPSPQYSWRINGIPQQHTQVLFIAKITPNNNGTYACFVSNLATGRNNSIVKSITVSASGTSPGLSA
Experimental: as §1, §2

**Q.** Does B1 bind?
**A.** Result: no binding (tested: 5 µg/ml)

**Q.** Does B2 bind?
**A.** Result: no binding (tested: 5 µg/ml)

**Q.** Does B3 bind?
**A.** Result: no binding (tested: 5 µg/ml)

**Q.** Does B4 bind?
**A.** Result: no binding (tested: 5 µg/ml)

**Q.** Does B5 bind?
**A.** Result: no binding (tested: 5 µg/ml)

target: T5, human CEACAM8, full-length, on transfected HeLa cells (human, UniProt P31997 35-320); experiment: FACS, transfected HeLa cells
T5 construct: also called TPP-4190; HeLa human CEACAM8
T5 sequence: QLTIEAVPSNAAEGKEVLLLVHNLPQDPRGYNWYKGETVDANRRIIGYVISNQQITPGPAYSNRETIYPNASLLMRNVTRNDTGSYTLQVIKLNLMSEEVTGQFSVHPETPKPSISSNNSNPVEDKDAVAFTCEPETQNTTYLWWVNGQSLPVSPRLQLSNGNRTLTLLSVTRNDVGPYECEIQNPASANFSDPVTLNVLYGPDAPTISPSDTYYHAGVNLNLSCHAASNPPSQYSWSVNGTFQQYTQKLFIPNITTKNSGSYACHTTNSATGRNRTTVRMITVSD
Experimental: as §1, §2

**Q.** Does B1 bind?
**A.** Result: no binding (tested: 5 µg/ml)

**Q.** Does B2 bind?
**A.** Result: no binding (tested: 5 µg/ml)

**Q.** Does B3 bind?
**A.** Result: no binding (tested: 5 µg/ml)

**Q.** Does B4 bind?
**A.** Result: no binding (tested: 5 µg/ml)

**Q.** Does B5 bind?
**A.** Result: no binding (tested: 5 µg/ml)
